Measured values from publication PMC9482650, “Quantitative fragmentomics allow affinity mapping of interactomes” (Nature Communications, 2022).

T1: SNTB1, Q13884
T1 sequence (Q13884 107-205, limits assumed, looked up): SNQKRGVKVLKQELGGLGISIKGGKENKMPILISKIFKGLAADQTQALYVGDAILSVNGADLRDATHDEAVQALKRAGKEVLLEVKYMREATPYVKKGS

T2: GRIP1_3, Q9Y3R0
T2 sequence (Q9Y3R0 247-346, limits assumed, looked up): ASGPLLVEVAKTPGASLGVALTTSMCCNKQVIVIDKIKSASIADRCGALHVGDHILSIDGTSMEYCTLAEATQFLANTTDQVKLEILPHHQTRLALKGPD

T3: PDZRN3_1, Q9UPQ7
T3 sequence (Q9UPQ7 244-349, limits assumed, looked up): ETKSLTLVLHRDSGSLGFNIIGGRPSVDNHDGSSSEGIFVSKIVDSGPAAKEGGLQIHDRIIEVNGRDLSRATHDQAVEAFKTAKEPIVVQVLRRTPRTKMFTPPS

T4: RADIL, Q96JH8
T4 sequence (Q96JH8 971-1071, limits assumed, looked up): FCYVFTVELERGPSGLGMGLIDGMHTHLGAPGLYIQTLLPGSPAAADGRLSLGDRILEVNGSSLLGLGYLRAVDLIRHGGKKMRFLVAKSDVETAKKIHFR

T5: APBA2_2, Q99767
T5 sequence (Q99767 654-744, limits assumed, looked up): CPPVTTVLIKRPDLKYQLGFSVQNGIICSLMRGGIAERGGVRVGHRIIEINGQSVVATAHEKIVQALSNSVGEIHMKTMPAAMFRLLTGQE

T6: TX1BP3, O14907
T6 sequence (O14907 10-122, limits assumed, looked up): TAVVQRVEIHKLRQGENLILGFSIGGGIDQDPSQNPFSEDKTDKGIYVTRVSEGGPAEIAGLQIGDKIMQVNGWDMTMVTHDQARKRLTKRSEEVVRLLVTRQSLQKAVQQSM

T7: GRIP1_5, Q9Y3R0
T7 sequence (Q9Y3R0 568-668, limits assumed, looked up): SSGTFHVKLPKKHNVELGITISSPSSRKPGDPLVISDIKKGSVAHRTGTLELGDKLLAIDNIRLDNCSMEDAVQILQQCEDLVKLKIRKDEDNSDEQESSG


Each binder was assayed against MAGI1_1, Q96QZ7 (assay: holdup assay). Settings: plain residues with an end cap or a label only (N-terminal biotin on a linker: ado-ado).
MAGI1_1, Q96QZ7, sequence (Q96QZ7 1-106): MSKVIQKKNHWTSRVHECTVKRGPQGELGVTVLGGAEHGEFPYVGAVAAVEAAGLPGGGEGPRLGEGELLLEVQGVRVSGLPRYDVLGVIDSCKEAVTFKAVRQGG
Design: key: below the threshold = too weak to quantify, mostly under pKd 3.1 to 4
With IPLDGETEEL [MYOZ1, Q9NP98] the pKd was “below the threshold”.

The binders below were run against Inadl_1, Q8NI35 (assay: holdup assay). Settings: plain residues with an end cap or a label only (N-terminal biotin on a linker: ado-ado).
Inadl_1, Q8NI35, sequence (Q8NI35 113-229): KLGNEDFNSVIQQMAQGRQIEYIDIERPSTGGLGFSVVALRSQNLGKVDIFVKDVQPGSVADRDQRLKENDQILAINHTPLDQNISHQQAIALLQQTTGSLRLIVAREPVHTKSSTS
Design: key: below the threshold = too weak to quantify, mostly under pKd 3.1 to 4
With IPLDGETEEL [MYOZ1, Q9NP98] the pKd was “below the threshold”.

What follows are binders tested against GORASP1, Q9BQQ3 (assay: holdup assay). Settings: plain residues with an end cap or a label only (N-terminal biotin on a linker: ado-ado).
GORASP1, Q9BQQ3, sequence (Q9BQQ3 1-208): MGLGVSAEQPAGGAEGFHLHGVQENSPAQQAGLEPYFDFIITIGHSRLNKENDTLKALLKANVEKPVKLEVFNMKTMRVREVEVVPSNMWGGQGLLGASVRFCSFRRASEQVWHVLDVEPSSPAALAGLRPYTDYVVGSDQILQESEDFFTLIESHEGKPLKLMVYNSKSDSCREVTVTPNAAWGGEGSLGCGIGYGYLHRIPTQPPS
Design: key: below the threshold = too weak to quantify, mostly under pKd 3.1 to 4
For IPLDGETEEL [MYOZ1, Q9NP98], the pKd was “below the threshold”.

Each binder was assayed against SNX27, Q96L92 (assay: holdup assay). Settings: plain residues with an end cap or a label only (N-terminal biotin on a linker: ado-ado).
Design: key: below the threshold = too weak to quantify, mostly under pKd 3.1 to 4
A pKd of 3.69 was found for IPLDGETEEL [MYOZ1, Q9NP98] in this work.

These binders were tested against SCRIB_3, Q14160 (assay: holdup assay). Settings: plain residues with an end cap or a label only (N-terminal biotin on a linker: ado-ado).
SCRIB_3, Q14160, sequence (Q14160 999-1103): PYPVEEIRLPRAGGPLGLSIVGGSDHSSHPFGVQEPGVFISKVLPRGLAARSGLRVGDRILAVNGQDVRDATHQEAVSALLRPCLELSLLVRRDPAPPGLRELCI
Design: key: below the threshold = too weak to quantify, mostly under pKd 3.1 to 4
IPLDGETEEL [MYOZ1, Q9NP98] was tested, and the pKd was “below the threshold”.

What follows are binders tested against IL16_4, Q14005 (assay: holdup assay). Settings: plain residues with an end cap or a label only (N-terminal biotin on a linker: ado-ado).
IL16_4, Q14005, sequence (Q14005 1229-1329): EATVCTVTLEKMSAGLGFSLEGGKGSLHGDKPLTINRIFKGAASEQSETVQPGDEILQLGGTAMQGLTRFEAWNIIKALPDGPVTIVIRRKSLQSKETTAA
Design: key: below the threshold = too weak to quantify, mostly under pKd 3.1 to 4
IPLDGETEEL [MYOZ1, Q9NP98] was tested, and the pKd was “below the threshold”.

These binders were tested against PDZRN4_1, Q6ZMN7 (assay: holdup assay). Settings: plain residues with an end cap or a label only (N-terminal biotin on a linker: ado-ado).
PDZRN4_1, Q6ZMN7, sequence (Q6ZMN7 213-318): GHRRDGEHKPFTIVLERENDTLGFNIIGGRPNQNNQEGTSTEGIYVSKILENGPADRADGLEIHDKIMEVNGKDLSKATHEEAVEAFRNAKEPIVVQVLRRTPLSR
Design: key: below the threshold = too weak to quantify, mostly under pKd 3.1 to 4
For IPLDGETEEL [MYOZ1, Q9NP98], the pKd was “below the threshold”.

What follows are binders tested against T1, SNTB1, Q13884 (assay: holdup assay). Settings: plain residues with an end cap or a label only (N-terminal biotin on a linker: ado-ado).
Design: key: below the threshold = too weak to quantify, mostly under pKd 3.1 to 4
With IPLDGETEEL [MYOZ1, Q9NP98] the pKd was “below the threshold”.

What follows are binders tested against LNX1_3, Q8TBB1 (assay: holdup assay). Settings: plain residues with an end cap or a label only (N-terminal biotin on a linker: ado-ado).
LNX1_3, Q8TBB1, sequence (Q8TBB1 500-596): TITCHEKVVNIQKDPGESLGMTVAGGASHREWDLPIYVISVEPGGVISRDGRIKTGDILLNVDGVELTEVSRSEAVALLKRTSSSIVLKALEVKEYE
Design: key: below the threshold = too weak to quantify, mostly under pKd 3.1 to 4
IPLDGETEEL [MYOZ1, Q9NP98] was tested, and the pKd was “below the threshold”.

What follows are binders tested against DLG4_2, P78352 (assay: holdup assay). Settings: plain residues with an end cap or a label only (N-terminal biotin on a linker: ado-ado).
DLG4_2, P78352, sequence (P78352 155-259): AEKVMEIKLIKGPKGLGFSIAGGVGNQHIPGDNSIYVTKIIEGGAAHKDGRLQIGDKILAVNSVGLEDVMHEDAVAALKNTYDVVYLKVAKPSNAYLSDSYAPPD
Design: key: below the threshold = too weak to quantify, mostly under pKd 3.1 to 4
For IPLDGETEEL [MYOZ1, Q9NP98], the pKd was “below the threshold”.

The binders below were run against T2, GRIP1_3, Q9Y3R0 (assay: holdup assay). Settings: plain residues with an end cap or a label only (N-terminal biotin on a linker: ado-ado).
Design: key: below the threshold = too weak to quantify, mostly under pKd 3.1 to 4
With IPLDGETEEL [MYOZ1, Q9NP98] the pKd was “below the threshold”.

These binders were tested against DLG4_3, P78352 (assay: holdup assay). Settings: plain residues with an end cap or a label only (N-terminal biotin on a linker: ado-ado).
DLG4_3, P78352, sequence (P78352 306-403): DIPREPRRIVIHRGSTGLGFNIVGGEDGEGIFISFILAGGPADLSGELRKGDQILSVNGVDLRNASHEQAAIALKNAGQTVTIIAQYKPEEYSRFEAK
Design: key: below the threshold = too weak to quantify, mostly under pKd 3.1 to 4
In the case of IPLDGETEEL [MYOZ1, Q9NP98], the pKd is reported as “below the threshold”.

Each binder was assayed against FRMPD4, Q14CM0 (assay: holdup assay). Settings: plain residues with an end cap or a label only (N-terminal biotin on a linker: ado-ado).
FRMPD4, Q14CM0, sequence (Q14CM0 67-160): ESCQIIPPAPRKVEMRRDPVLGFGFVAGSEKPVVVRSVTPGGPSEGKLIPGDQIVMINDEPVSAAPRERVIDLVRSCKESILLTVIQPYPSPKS
Design: key: below the threshold = too weak to quantify, mostly under pKd 3.1 to 4
A pKd of 4.03 was found for IPLDGETEEL [MYOZ1, Q9NP98] in this work.

The binders below were run against SCRIB_2, Q14160 (assay: holdup assay). Settings: plain residues with an end cap or a label only (N-terminal biotin on a linker: ado-ado).
SCRIB_2, Q14160, sequence (Q14160 857-960): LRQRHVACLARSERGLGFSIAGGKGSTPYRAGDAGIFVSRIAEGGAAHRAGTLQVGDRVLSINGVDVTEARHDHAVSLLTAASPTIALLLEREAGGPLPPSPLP
Design: key: below the threshold = too weak to quantify, mostly under pKd 3.1 to 4
For IPLDGETEEL [MYOZ1, Q9NP98], the pKd was “below the threshold”.

Each binder was assayed against T3, PDZRN3_1, Q9UPQ7 (assay: holdup assay). Settings: plain residues with an end cap or a label only (N-terminal biotin on a linker: ado-ado).
Design: key: below the threshold = too weak to quantify, mostly under pKd 3.1 to 4
With IPLDGETEEL [MYOZ1, Q9NP98] the pKd was “below the threshold”.

These binders were tested against CASK, O14936 (assay: holdup assay). Settings: plain residues with an end cap or a label only (N-terminal biotin on a linker: ado-ado).
CASK, O14936, sequence (O14936 487-570): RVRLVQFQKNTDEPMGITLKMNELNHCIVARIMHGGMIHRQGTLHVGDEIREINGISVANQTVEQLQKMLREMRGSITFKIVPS
Design: key: below the threshold = too weak to quantify, mostly under pKd 3.1 to 4
With IPLDGETEEL [MYOZ1, Q9NP98] the pKd was “below the threshold”.

Each binder was assayed against MAGI2_6, Q86UL8 (assay: holdup assay). Settings: plain residues with an end cap or a label only (N-terminal biotin on a linker: ado-ado).
MAGI2_6, Q86UL8, sequence (Q86UL8 1141-1229): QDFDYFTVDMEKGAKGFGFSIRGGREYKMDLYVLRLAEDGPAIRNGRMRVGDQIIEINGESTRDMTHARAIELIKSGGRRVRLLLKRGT
Design: key: below the threshold = too weak to quantify, mostly under pKd 3.1 to 4
IPLDGETEEL [MYOZ1, Q9NP98] was tested, and the pKd was “below the threshold”.

What follows are binders tested against GRIP2_4, Q9C0E4 (assay: holdup assay). Settings: plain residues with an end cap or a label only (N-terminal biotin on a linker: ado-ado).
GRIP2_4, Q9C0E4, sequence (Q9C0E4 446-548): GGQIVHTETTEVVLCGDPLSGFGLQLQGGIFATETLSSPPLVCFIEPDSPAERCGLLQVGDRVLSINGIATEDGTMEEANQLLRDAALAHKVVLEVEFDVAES
Design: key: below the threshold = too weak to quantify, mostly under pKd 3.1 to 4
In the case of IPLDGETEEL [MYOZ1, Q9NP98], the pKd is reported as “below the threshold”.

What follows are binders tested against FRMPD3, Q5JV73 (assay: holdup assay). Settings: plain residues with an end cap or a label only (N-terminal biotin on a linker: ado-ado).
FRMPD3, Q5JV73, sequence (Q5JV73 12-100): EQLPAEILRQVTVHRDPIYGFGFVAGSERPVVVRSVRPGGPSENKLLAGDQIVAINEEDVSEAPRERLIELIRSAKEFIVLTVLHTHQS
Design: key: below the threshold = too weak to quantify, mostly under pKd 3.1 to 4
With IPLDGETEEL [MYOZ1, Q9NP98] the pKd was “below the threshold”.

These binders were tested against MAGI2_5, Q86UL8 (assay: holdup assay). Settings: plain residues with an end cap or a label only (N-terminal biotin on a linker: ado-ado).
MAGI2_5, Q86UL8, sequence (Q86UL8 915-1017): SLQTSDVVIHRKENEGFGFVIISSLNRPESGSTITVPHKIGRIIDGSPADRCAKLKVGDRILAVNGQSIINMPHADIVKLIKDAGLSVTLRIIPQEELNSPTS
Design: key: below the threshold = too weak to quantify, mostly under pKd 3.1 to 4
For IPLDGETEEL [MYOZ1, Q9NP98], the pKd was “below the threshold”.

Each binder was assayed against LNX1_2, Q8TBB1 (assay: holdup assay). Settings: plain residues with an end cap or a label only (N-terminal biotin on a linker: ado-ado).
LNX1_2, Q8TBB1, sequence (Q8TBB1 371-470): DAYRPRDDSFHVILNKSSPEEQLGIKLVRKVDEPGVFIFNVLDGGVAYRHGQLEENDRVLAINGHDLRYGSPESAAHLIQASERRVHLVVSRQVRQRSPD
Design: key: below the threshold = too weak to quantify, mostly under pKd 3.1 to 4
For IPLDGETEEL [MYOZ1, Q9NP98], the pKd was “below the threshold”.

These binders were tested against MAGI1_2, Q96QZ7 (assay: holdup assay). Settings: plain residues with an end cap or a label only (N-terminal biotin on a linker: ado-ado).
MAGI1_2, Q96QZ7, sequence (Q96QZ7 456-580): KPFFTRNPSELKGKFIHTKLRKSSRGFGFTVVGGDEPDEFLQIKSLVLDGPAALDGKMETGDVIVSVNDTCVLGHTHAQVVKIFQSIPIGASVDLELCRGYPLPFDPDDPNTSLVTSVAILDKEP
Design: key: below the threshold = too weak to quantify, mostly under pKd 3.1 to 4
With IPLDGETEEL [MYOZ1, Q9NP98] the pKd was “below the threshold”.

Each binder was assayed against GRIP2_7, Q9C0E4 (assay: holdup assay). Settings: plain residues with an end cap or a label only (N-terminal biotin on a linker: ado-ado).
GRIP2_7, Q9C0E4, sequence (Q9C0E4 934-1023): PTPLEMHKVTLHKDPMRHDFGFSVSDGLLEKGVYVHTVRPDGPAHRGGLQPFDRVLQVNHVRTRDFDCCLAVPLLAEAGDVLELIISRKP
Design: key: below the threshold = too weak to quantify, mostly under pKd 3.1 to 4
For IPLDGETEEL [MYOZ1, Q9NP98], the pKd was “below the threshold”.

What follows are binders tested against Inadl_6, Q8NI35 (assay: holdup assay). Settings: plain residues with an end cap or a label only (N-terminal biotin on a linker: ado-ado).
Inadl_6, Q8NI35, sequence (Q8NI35 1058-1167): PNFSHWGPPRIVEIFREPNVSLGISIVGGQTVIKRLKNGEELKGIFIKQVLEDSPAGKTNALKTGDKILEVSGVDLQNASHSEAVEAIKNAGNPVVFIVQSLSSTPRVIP
Design: key: below the threshold = too weak to quantify, mostly under pKd 3.1 to 4
For IPLDGETEEL [MYOZ1, Q9NP98], the pKd was “below the threshold”.

These binders were tested against T4, RADIL, Q96JH8 (assay: holdup assay). Settings: plain residues with an end cap or a label only (N-terminal biotin on a linker: ado-ado).
Design: key: below the threshold = too weak to quantify, mostly under pKd 3.1 to 4
For IPLDGETEEL [MYOZ1, Q9NP98], the pKd was “below the threshold”.

The binders below were run against T5, APBA2_2, Q99767 (assay: holdup assay). Settings: plain residues with an end cap or a label only (N-terminal biotin on a linker: ado-ado).
Design: key: below the threshold = too weak to quantify, mostly under pKd 3.1 to 4
With IPLDGETEEL [MYOZ1, Q9NP98] the pKd was “below the threshold”.

What follows are binders tested against T6, TX1BP3, O14907 (assay: holdup assay). Settings: plain residues with an end cap or a label only (N-terminal biotin on a linker: ado-ado).
Design: key: below the threshold = too weak to quantify, mostly under pKd 3.1 to 4
With IPLDGETEEL [MYOZ1, Q9NP98] the pKd was “below the threshold”.

What follows are binders tested against T7, GRIP1_5, Q9Y3R0 (assay: holdup assay). Settings: plain residues with an end cap or a label only (N-terminal biotin on a linker: ado-ado).
Design: key: below the threshold = too weak to quantify, mostly under pKd 3.1 to 4
In the case of IPLDGETEEL [MYOZ1, Q9NP98], the pKd is reported as “below the threshold”.

Each binder was assayed against PICK1, Q9NRD5 (assay: holdup assay). Settings: plain residues with an end cap or a label only (N-terminal biotin on a linker: ado-ado).
PICK1, Q9NRD5, sequence (Q9NRD5 17-115): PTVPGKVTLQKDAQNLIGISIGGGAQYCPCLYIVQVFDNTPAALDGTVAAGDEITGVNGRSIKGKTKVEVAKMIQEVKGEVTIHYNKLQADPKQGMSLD
Design: key: below the threshold = too weak to quantify, mostly under pKd 3.1 to 4
IPLDGETEEL [MYOZ1, Q9NP98] was tested, and the pKd was “below the threshold”.

What follows are binders tested against LNX1_1, Q8TBB1 (assay: holdup assay). Settings: plain residues with an end cap or a label only (N-terminal biotin on a linker: ado-ado).
LNX1_1, Q8TBB1, sequence (Q8TBB1 261-371): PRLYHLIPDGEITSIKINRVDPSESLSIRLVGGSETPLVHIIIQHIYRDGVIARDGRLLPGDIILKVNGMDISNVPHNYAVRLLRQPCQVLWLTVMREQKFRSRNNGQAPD
Design: key: below the threshold = too weak to quantify, mostly under pKd 3.1 to 4
With IPLDGETEEL [MYOZ1, Q9NP98] the pKd was “below the threshold”.
